Experimental data reported in paper PMC2099194 (The Journal of Cell Biology, 2007).
Where two headings read alike, the source gives them in different places. Values belong to the molecule of their own block, whether it stands above or below them.

Tests used:
[1] = target: full-length FLNa lacking hinge 1 (human) (UniProt P21333); assay: rotary-shadowing electron microscopy
[2] = target: His-ABD-IgFLNa8-15+24 (human) (UniProt P21333); assay: rotary-shadowing electron microscopy
[3] = target: F-actin (rabbit skeletal muscle actin) (rabbit) (UniProt P68135); assay: co-sedimentation
[4] = target: His-IgFLNa8-15+24 (human); assay: rotary-shadowing electron microscopy
[5] = target: His-ABD-IgFLNa1-8+24 (human) (UniProt P21333); assay: rotary-shadowing electron microscopy
[6] = target: full-length FLNa lacking hinge 2 (human) (UniProt P21333); assay: rotary-shadowing electron microscopy
His-IgFLNa16-24 (human) = assay: rotary-shadowing electron microscopy
[7] = target: F-actin (rabbit skeletal muscle actin) (rabbit) (UniProt P68135); assay: co-sedimentation; remark: listed apart in the source
[8] = target: recombinant human filamin A (FLNa), full length (human) (UniProt P21333); assay: rotary-shadowing electron microscopy
[9] = target: FLAG-tagged full-length FLNa (human) (UniProt P21333); assay: rotary-shadowing electron microscopy
His-IgFLNa1-8+24 (human) = assay: rotary-shadowing electron microscopy
[10] = target: His-ABD-IgFLNa16-24 (human) (UniProt P21333); assay: rotary-shadowing electron microscopy
[11] = target: FLAG-tagged full-length FLNa (human, UniProt P21333 1-2647); assay: pull-down

Molecule: full-length FLNa lacking hinge 1 (from UniProt P21333 1-2647) (natural protein)
stoichiometry N [1]: 2

Molecule: His-ABD-IgFLNa8-15+24 (from UniProt P21333 1-278) (domain or fragment)
stoichiometry N [2]: 2

Kd [3]: 0.31 µM
stoichiometry N (ratio to actin, mol/mol) [3]: 12
Molecule: ABD-IgFLNa1-23 (domain or fragment)

Molecule: His-IgFLNa8-15+24 (domain or fragment)
stoichiometry N [4]: 2

Molecule: His-ABD-IgFLNa1-8+24 (from UniProt P21333 1-278) (domain or fragment)
stoichiometry N [5]: 2

Molecule: full-length FLNa lacking hinge 2 (from UniProt P21333 1-2647) (natural protein)
stoichiometry N [6]: 2

Molecule: His-IgFLNa16-24 (domain or fragment)
stoichiometry N (His-IgFLNa16-24 (human)): 2

Kd [3]: 0.67 µM
stoichiometry N (ratio to actin, mol/mol) [3]: 5.4
Molecule: ABD-IgFLNa1-15 (domain or fragment)

percent bound of total input [7]: 11.7%
Kd [3]: 17 µM
percent bound of total input [3]: 8.7%
stoichiometry N (ratio to actin, mol/mol) [3]: 1
Molecule: FLNa ABD (F-actin binding domain alone) (domain or fragment)

Molecule: recombinant human filamin A (FLNa), full length, P21333 1-2647
percent bound of total input [7]: 83.6%
KD of the high avidity site (apparent, two independent site model) [3]: 0.017 µM
KD of the low affinity site (apparent, two independent site model) [3]: 0.22 µM
percent bound of total input [3]: 56.3%
stoichiometry N [8]: 2

Molecule: FLAG-tagged full-length FLNa, P21333 1-2647
stoichiometry N [9]: 2

Molecule: His-IgFLNa1-8+24 (domain or fragment)
stoichiometry N (His-IgFLNa1-8+24 (human)): 2

Molecule: His-ABD-IgFLNa16-24 (from UniProt P21333 1-278) (domain or fragment)
stoichiometry N [10]: 2

Kd [3]: 11.8 µM
stoichiometry N (ratio to actin, mol/mol) [3]: 1.3
Molecule: ABD-IgFLNa1-2 (domain or fragment)

Kd [3]: 7.5 µM
stoichiometry N (ratio to actin, mol/mol) [3]: 1.7
Molecule: ABD-IgFLNa1-4 (domain or fragment)

Kd [3]: 7.1 µM
stoichiometry N (ratio to actin, mol/mol) [3]: 1.8
Molecule: FLAG-ABD-IgFLNa1-8 (domain or fragment)

binding result [11]: binds
B1: full-length human recombinant FilGAP (natural protein, UniProt Q8N264 1-748, looked up)
chain: MEENNDSTENPQQGQGRQNAIKCGWLRKQGGFVKTWHTRWFVLKGDQLYYFKDEDETKPLGTIFLPGNKVSEHPCNEENPGKFLFEVVPGGDRDRMTANHESYLLMASTQNDMEDWVKSIRRVIWGPFGGGIFGQKLEDTVRYEKRYGNRLAPMLVEQCVDFIRQRGLKEEGLFRLPGQANLVKELQDAFDCGEKPSFDSNTDVHTVASLLKLYLRELPEPVIPYAKYEDFLSCAKLLSKEEEAGVKELAKQVKSLPVVNYNLLKYICRFLDEVQSYSGVNKMSVQNLATVFGPNILRPKVEDPLTIMEGTVVVQQLMSVMISKHDCLFPKDAELQSKPQDGVSNNNEIQKKATMGQLQNKENNNTKDSPSRQCSWDKSESPQRSSMNNGSPTALSGSKTNSPKNSVHKLDVSRSPPLMVKKNPAFNKGSGIVTNGSFSSSNAEGLEKTQTTPNGSLQARRSSSLKVSGTKMGTHSVQNGTVRMGILNSDTLGNPTNVRNMSWLPNGYVTLRDNKQKEQAGELGQHNRLSTYDNVHQQFSMMNLDDKQSIDSATWSTSSCEISLPENSNSCRSSTTTCPEQDFFGGNFEDPVLDGPPQDDLSHPRDYESKSDHRSVGGRSSRATSSSDNSETFVGNSSSNHSALHSLVSSLKQEMTKQKIEYESRIKSLEQRNLTLETEMMSLHDELDQERKKFTMIEIKMRNAERAKEDAEKRNDMLQKEMEQFFSTFGELTVEPRRTERGNTIWIQ
